Reference: the supplement of paper PMC9170038

Columns and labels:
MS2 coat protein [1] = experiment: apparent KD of MS2 coat protein; higher = weaker reporter binding; conditions: Eterna round: R101
Method: (§1)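 RNA-MaP: designed FMN/MS2 RNA switches (84 nt design region) are transcribed on-chip within common flanks and titrated with SNAP-549-labelled MS2 coat protein (about 1-3000 nM) in 100 mM Tris pH 7.5, 80 mM KCl, 4 mM MgCl2, without or with 200 uM FMN. Median apparent KD per design; activation ratio = KD,OFF / KD,ON.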

MS2 coat protein [2] = experiment: apparent KD of MS2 coat protein; designed switch direction (-1 OFF switch, 1 ON switch): -1; higher = weaker reporter binding; conditions: Eterna round: R98
Method: as §1

MS2 coat protein [3] = experiment: apparent KD of MS2 coat protein; designed switch direction (-1 OFF switch, 1 ON switch): 1; higher = weaker reporter binding; conditions: Eterna round: R98
Method: as §1

Sequence | apparent KD of MS2 coat protein (MS2 coat protein [1]; input ligand: FMN 200 uM) [nM] | apparent KD of MS2 coat protein (MS2 coat protein [1]; input ligand: none) [nM] | apparent KD of MS2 coat protein (MS2 coat protein [3]; input ligand: FMN 200 uM) [nM] | apparent KD of MS2 coat protein (MS2 coat protein [3]; input ligand: none) [nM] | other results
AGGAGAAAUGUAGGAUAUGGGCGGGCGUACGGGCAAAGCGCGUACGCCCGCCCAGAAGGACAUGAGGAUCACCCAUGUUUCCCU [#Lowering the energy 1] (puzzle (switch architecture): Small Loop Exclusion NG 1) | 16 | 14.5 | – | – | –
AGGCAGCACUGCUACGUGGCCUCACAUGAGGAUCACCCAUGUAAGGAUAUCGGGUAGCAUUACCACGAGAAGGUACAUAAGAGG [Ceisle] (puzzle (switch architecture): Exclusion NG 3) | 25.8 | 15 | – | – | –
GGUUGUUACGCAGGAUAUUGCCAACAGGCAGUAGGAUAUCCGAAAGGAGAAGGAUCGCCAACAGGCGAGAAGGGCGGGUUAACC [pwkr exNG2 2xF7 2FMN.10.5] | – | – | – | – | apparent KD of MS2 coat protein (MS2 coat protein [2]; input ligand: FMN 200 uM): 121 nM; apparent KD of MS2 coat protein (MS2 coat protein [2]; input ligand: none): 1240 nM
ACAGGUCGUGAGAAGGCGUGUGGCACCGUCGAAAGACGGUGCAAUUAAGAUCUUCGAGGAUCACCCGAGGAUAUCACGACCUGA [#SharedSequence - IExNG2: 18] (puzzle (switch architecture): Inverted Exclusion NG 2) | 70.4 | 18.6 | – | – | –
GUCACGAAUGUAGGAUAUCGAGUGGAAUACACUCGAGAAGGACAUGAGGAUCACCCAUGUAAAAUGAAAGAUAAUAAACGUGAC [Exclsuion NG 1/2-B1] | – | – | – | – | apparent KD of MS2 coat protein (MS2 coat protein [2]; input ligand: FMN 200 uM): 51.7 nM; apparent KD of MS2 coat protein (MS2 coat protein [2]; input ligand: none): 18 nM
GGAGACCUCACAGGAUAUGCUGGACUUUGUCCAGCAGAAGGGUGAAAACAUGAGGAUCACCCAUGUAUGGUCUCCAAAUUUAAU [Denovo 57] | – | – | 30.4 | 632 | –
UAUAAUCUUUAAGGAUAUGACUCCGUUUCGGAGUCAGAAGGUGAGGAUCACCCACCUAGCUCAGGGUCGUUUGACCCUGAGCAU [#AddUracilToBrourdLoops 9 - Jieux - Exclusion NG1] (puzzle (switch architecture): Exclusion NG 1) | 10.6 | 8.87 | – | – | –
GGACUCACUUGAGGAUAUCGAGUGGAUAACACUCGAGAAGGCAGGGAAACCUGAGGAUCACCCAGGUAAGAGUCCAAUAAUAAA [Same State NG1 - A3C, U17G Submission 2D] | – | – | 19.9 | 42.1 | –
AAAACAUGAGGAUCACCCAUGUAAAGAUCGGUUAAUAGAAGUGAGGAUAUGCUUAAAAUAAGGUAGCAGAAGGCACUGGGUACA [JR_SSNG3_Sub040] | – | – | 27.8 | 23.4 | –
AAAACAUGAGGAUCACCCAUGUAAAGAUCGGUUAAUAGAAGUGAGGAUAUACAAAAUUUUAGGUAGUAGAAGGCACAGGGUACA [JR_SSNG3_Sub046] | – | – | 31.5 | 33 | –
UCGACGAAAGUCGAACGAUGUAGCAGAAGGACAUGAGGAUCACCCAUGUCAGCUGUAACAGCCAUGUAGGAUAUGCUACAUCGG [salish99_ISLExNG3_007 #endbits investigation] (puzzle (switch architecture): Inverted Small Loop Exclusion NG 3) | – | 4.42 | – | – | –
UCUGCUAUCGCAGGAUAUUACAUGGGAAAGAAUACAUGAGGAUCACCCAUGUAAAAGAUCAUAAAUAAGAAGGGCGAUAGCAGA [Lame State 7 - Jieux - Same State NG 2] | – | – | 116 | 1530 | –
GGUUUCAGGAUAGGAUAUGGCGUGACAUGGCGGCCAGAAGGAUCCUCGGGAACAUGAGGAUCACCCAUGUGACCGUGUCGAGUC [Biveedve] | – | – | 190 | 741 | –
UUACGUCCCGUUUACAUGAGGAUCACCCAUGUCGAAAGACAUGAGGAUAUGCUACCUAGUUGGUAGCAGAAGGCGUGGACGUCG [salish99_SSNG3_r02_005] | – | – | 87.1 | 121 | –
UCACUCAAGUUAGGAUAUGGAUCGGAAAACGAUCCAGAAGGAACAUGAAAACAUGAGCAUCAGCCAUGUUCCAGAAACGAGUGA [SameSame 4 - Jieux - Same State NG 1] | – | – | 23.6 | – | –
AUUACAUGAGGAUCACCCAUGUACAGAACGUUUCAUUAAAGUGAGGAUAUACGAAAUUUAAAAGCGUAGAAGGCACUGGGUACA [SameState #43 NG3] | – | – | 24.2 | 27.8 | –
UCGGCCCGGGAGAAGGACAUGAGGAUCACCCAUGUCGCCGGGCCCGGGAAACCGGGCCCGGCCAUGUAGGAUAUCCCGGGCCGA [#This is a good prank 2] (puzzle (switch architecture): Inverted Exclusion NG 2) | 4.79 | 4.59 | – | – | –
GGUCGACUUCAAGGAUAUGGACUGCUUUGCAGUCCAGAAGGUGAGGAUCACCCAUCUACGGUCAGGUUUCUGACCGAUCGACCU [#AddUracilToBrourdLoops 8 - Jieux - Exclusion NG1] (puzzle (switch architecture): Exclusion NG 1) | 102 | 73.4 | – | – | –

Sequence | apparent KD of MS2 coat protein (MS2 coat protein [1]; input ligand: FMN 200 uM) [nM] | apparent KD of MS2 coat protein (MS2 coat protein [1]; input ligand: none) [nM] | apparent KD of MS2 coat protein (MS2 coat protein [3]; input ligand: FMN 200 uM) [nM] | apparent KD of MS2 coat protein (MS2 coat protein [3]; input ligand: none) [nM] | other results
UGUCGGAGCAGAGGAUAUUACAUGAGGAUCACCCAUGUAUGAACCAAUAGCUGGAAACAGCAAUGUAAGAAGGCUGCUCCGACA (puzzle (switch architecture): Exclusion NG 2) | 177 | 12.3 | – | – | –
CCUGCACCUCAAGGAUAUCCAGUCGAAACGACUGGAGAAGGUGAGGAUCACCCACCUAGCCUGACGAAAGUCAGGCAUGCAGGA [#SharedSequence - ExNG1-1] (puzzle (switch architecture): Exclusion NG 1) | 32.8 | – | – | – | –
UAGAAGUGGUGAGGAUAUGAAUACGGCUCAUUAUCCUACAUGAGGAUCACCCAUGUGGGUGGUCGUCAGAAGGCACUGCUAUCG [Edretirige] | – | – | 181 | 32.3 | –
AAAUAACUCGAAGGAUAUGACCCUCGAGGUGACUAAAAGUCACCUCGAGGGUCAGAAGGUCGAGGAUCACCCGACCUAAAUAAA [#SharedSequence SLExNG1: 5-1] (puzzle (switch architecture): Small Loop Exclusion NG 1) | 36.8 | 10.2 | – | – | –
GUAGCAUACCGAGGAUAUUCUCCGGAAAACCGGACAUGAGGAUCACCCAUGUGGCGAAAGCCUUGGGAGAAGGCGGAAUGCUAC [Xeinanis 75 29] | – | – | 18.6 | 34.4 | –
GUAGCUAUCGCAGGAUAUCCUCAGGCGAAAGCCACAUGAGGAUCACCCAUGUAAAUAAAGAAUUUGGAGAAGGGCGAUAGCUAC [jl-sng2-2.34 Eli mod] | – | – | 24.7 | 374 | –
AAAUAACUCGAAGGAUAUCAGGGUGCACCUCAGUAAAACUGAGGUGCACCCUGAGAAGGUCGAGGAUCACCCGACCUAAAUAAA [#SharedSequence SLExNG1: 5-2] (puzzle (switch architecture): Small Loop Exclusion NG 1) | 19.8 | 8.38 | – | – | –
GCAUACAUUCGAGGAUAUCGGUGAACAAAUUAGCGAGAAGGCGAUAUAAUUUUUAAACUUAUUGACAUGAGGAUCACCCAUGUA [JR_SSNG1_Sub011] | – | – | 20.5 | 24.8 | –
AAAACAUGAGGAUCACCCAUGUAUUGAACGGUUAAUAAAAGUGAGGAUAUACAAAAUUUUAUAUAGUAGAAGGCACUGGGUACA [JR_SSNG3_Sub009] | – | – | 20.8 | 21.2 | –
GGACGUCACAUAAACAUGAGGAUCACCCAUGUCAAAAGACAUGAGGAUAUGGAUGCGAAACGCAUCCAGAAGGCAUGGACGUCC [EliMod 4 - Jieux - Same State NG 3] | – | – | 57.3 | 728 | –
UUAUUUUUACAGAAGGUUUAAUAAUAUAUAAGAGAAGGAUAUGUAACAUGAGGAUCACCCAUGUUUCACCCAUAUGAGGAUCAU [Astosinvert#10] (puzzle (switch architecture): Inverted Exclusion NG 1) | 7.94 | 8.28 | – | – | –
AAAUAAAAUAUAGGAUAUGGAAACAUGAGGAUCACCCAUGUAUGAUAAGAUAAAUAAUGAUAUAGCCAGAAGGAUAAAAUAUAA [LRO006_SS NG 2] | – | – | 42.7 | 33 | –
GGACAUGUCGUUUACAUGAGGAUCACCCAUGUCGAUGGACAUGAGGAUAUGGAUCCGAAUCGGAUCCAGAAGGCAUGCAUGUCC [SameState #7 NG3] | – | – | 17.9 | 45.2 | –
AGAACAUGAGGAUCACCCAUGUGAAGGUCGGCGUAUAAGGGUGAGGAUAUGCUUAAAAUAAGGAAGCAGAAGGUACUUGGUGCG [SameState #80 NG3] | – | – | 75.3 | 165 | –
GGUCGUCACAUAUACAUGAGGAUCACCCAUGUCAAAAGACAUGAGGAUAUGGAUCCUAAUUGGAUCCAGAAGGCAUGGACGACC [#HiddenHairpinInALoop - Mat - Same State NG 3 - JL Mod - D11] (puzzle (switch architecture): Same State NG 3) | 21.4 | 412 | – | – | –
AAAUAACUUGAAGGAUAUGACCCUCGAGGUGACUAAAAGUCACCUCGAGGGUCAGAAGGUCGAGGAUCACCCGACCUAAAUAAA [#SharedSequence SLExNG1: 6-1] (puzzle (switch architecture): Small Loop Exclusion NG 1) | 6.69 | 7.14 | – | – | –
UAGAUCACCGAAGGAUAUGGGCAGAGUCCCGCUACAUGAGGAUCACCCAUGUCAGUCGGUCGUUUUCAGAAGGUCGGAAUGAUU [Zadi] | – | – | 57.1 | 19.4 | –
